Assay [1] addresses T1, CRF1R receptor (UniProt P34998 24-415, limits assumed).
T1 sequence (looked up): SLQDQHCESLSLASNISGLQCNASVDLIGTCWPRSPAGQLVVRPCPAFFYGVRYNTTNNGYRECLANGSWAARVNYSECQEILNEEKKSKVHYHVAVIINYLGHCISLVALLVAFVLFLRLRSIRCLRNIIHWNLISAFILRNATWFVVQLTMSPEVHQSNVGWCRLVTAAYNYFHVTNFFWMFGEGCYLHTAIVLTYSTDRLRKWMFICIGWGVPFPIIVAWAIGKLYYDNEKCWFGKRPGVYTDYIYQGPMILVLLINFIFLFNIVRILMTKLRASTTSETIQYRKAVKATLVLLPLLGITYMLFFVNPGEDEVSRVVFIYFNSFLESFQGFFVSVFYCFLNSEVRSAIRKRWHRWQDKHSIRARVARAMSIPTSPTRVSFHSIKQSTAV
Put plainly: cell-based or functional assay.

In assay [2] the target is human corticotropin-releasing factor 2a (CRF2a receptor) (human), Q13324. Put plainly: cell-based or functional assay.

*1 amine or outer side, *2 acyl side, *3 side chain or, on linkers, in order; H or OH if unused. Side-chain parts run from the residue outwards. [ ]: non-standard residue; d: D form. The star is where a group is joined. C20 diacid = O=C(O)CCCCCCCCCCCCCCCCCCC(=O)*; C18 diacid = O=C(O)CCCCCCCCCCCCCCCCC(=O)*; γGlu = O=C(O)[C@H](CCC(=O)[*:2])N[*:1]; Api = NC1(C(=O)O)CCNCC1; AEEA = NCCOCCOCC(=O)O; Aib = CC(C)(N)C(=O)O

Sequence of human corticotropin-releasing factor 2a (CRF2a receptor) (human), Q13324 (Q13324 20-411): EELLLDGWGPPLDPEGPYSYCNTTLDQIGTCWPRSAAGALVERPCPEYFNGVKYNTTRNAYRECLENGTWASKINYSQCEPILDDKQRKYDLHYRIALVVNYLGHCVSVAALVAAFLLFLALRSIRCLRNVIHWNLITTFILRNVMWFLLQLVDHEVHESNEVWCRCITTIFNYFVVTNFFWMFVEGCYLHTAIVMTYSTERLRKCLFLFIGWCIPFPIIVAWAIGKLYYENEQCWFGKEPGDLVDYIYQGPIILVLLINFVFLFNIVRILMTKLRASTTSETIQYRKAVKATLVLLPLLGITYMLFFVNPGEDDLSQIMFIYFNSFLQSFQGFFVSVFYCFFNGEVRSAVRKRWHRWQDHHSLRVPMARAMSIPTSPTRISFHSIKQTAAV

B1: SEQ ID NO 206 (peptide)
peptide: Ac-IVLSLD[dV]PIKLK([γGlu-C20 diacid])KILLEQEKQKKQREQAETN[Aib]QILAQV-NH2
SMILES: CC[C@H](C)[C@H](NC(C)=O)C(=O)N[C@H](C(=O)N[C@@H](CC(C)C)C(=O)N[C@@H](CO)C(=O)N[C@@H](CC(C)C)C(=O)N[C@@H](CC(=O)O)C(=O)N[C@@H](C(=O)N1CCC[C@H]1C(=O)N[C@H](C(=O)N[C@@H](CCCCN)C(=O)N[C@@H](CC(C)C)C(=O)N[C@@H](CCCCNC(=O)CC[C@H](NC(=O)CCCCCCCCCCCCCCCCCCC(=O)O)C(=O)O)C(=O)N[C@@H](CCCCN)C(=O)N[C@H](C(=O)N[C@@H](CC(C)C)C(=O)N[C@@H](CC(C)C)C(=O)N[C@@H](CCC(=O)O)C(=O)N[C@@H](CCC(N)=O)C(=O)N[C@@H](CCC(=O)O)C(=O)N[C@@H](CCCCN)C(=O)N[C@@H](CCC(N)=O)C(=O)N[C@@H](CCCCN)C(=O)N[C@@H](CCCCN)C(=O)N[C@@H](CCC(N)=O)C(=O)N[C@@H](CCCNC(=N)N)C(=O)N[C@@H](CCC(=O)O)C(=O)N[C@@H](CCC(N)=O)C(=O)N[C@@H](C)C(=O)N[C@@H](CCC(=O)O)C(=O)N[C@H](C(=O)N[C@@H](CC(N)=O)C(=O)NC(C)(C)C(=O)N[C@@H](CCC(N)=O)C(=O)N[C@H](C(=O)N[C@@H](CC(C)C)C(=O)N[C@@H](C)C(=O)N[C@@H](CCC(N)=O)C(=O)N[C@H](C(N)=O)C(C)C)[C@@H](C)CC)[C@@H](C)O)[C@@H](C)CC)[C@@H](C)CC)C(C)C)C(C)C
For B1, in assay [1], the 50% effective concentration (EC50) is 224 nM and the “Emax (% I)” value turned out to be 42%. The EC50 [nM] (cAMP) in assay [2] stood at 0.11 nM.

B2: SEQ ID NO 205 (peptide)
peptide: Ac-IVLSLD[dV]PIKLK([AEEA-γGlu-γGlu-C18 diacid])KILLEQEKQKKQREQAETN[Aib]QILAQV-NH2
SMILES: CC[C@H](C)[C@H](NC(C)=O)C(=O)N[C@H](C(=O)N[C@@H](CC(C)C)C(=O)N[C@@H](CO)C(=O)N[C@@H](CC(C)C)C(=O)N[C@@H](CC(=O)O)C(=O)N[C@@H](C(=O)N1CCC[C@H]1C(=O)N[C@H](C(=O)N[C@@H](CCCCN)C(=O)N[C@@H](CC(C)C)C(=O)N[C@@H](CCCCNC(=O)COCCOCCNC(=O)CC[C@H](NC(=O)CC[C@H](NC(=O)CCCCCCCCCCCCCCCCC(=O)O)C(=O)O)C(=O)O)C(=O)N[C@@H](CCCCN)C(=O)N[C@H](C(=O)N[C@@H](CC(C)C)C(=O)N[C@@H](CC(C)C)C(=O)N[C@@H](CCC(=O)O)C(=O)N[C@@H](CCC(N)=O)C(=O)N[C@@H](CCC(=O)O)C(=O)N[C@@H](CCCCN)C(=O)N[C@@H](CCC(N)=O)C(=O)N[C@@H](CCCCN)C(=O)N[C@@H](CCCCN)C(=O)N[C@@H](CCC(N)=O)C(=O)N[C@@H](CCCNC(=N)N)C(=O)N[C@@H](CCC(=O)O)C(=O)N[C@@H](CCC(N)=O)C(=O)N[C@@H](C)C(=O)N[C@@H](CCC(=O)O)C(=O)N[C@H](C(=O)N[C@@H](CC(N)=O)C(=O)NC(C)(C)C(=O)N[C@@H](CCC(N)=O)C(=O)N[C@H](C(=O)N[C@@H](CC(C)C)C(=O)N[C@@H](C)C(=O)N[C@@H](CCC(N)=O)C(=O)N[C@H](C(N)=O)C(C)C)[C@@H](C)CC)[C@@H](C)O)[C@@H](C)CC)[C@@H](C)CC)C(C)C)C(C)C
As to B2, in assay [1], the “Emax (% I)” value amounted to 1%. Also, in assay [2], the EC50 [nM] (cAMP) was found to be 1.43 nM.

B3: SEQ ID NO 207 (peptide)
peptide: Ac-IVLSLD[dV]PIKLK([γGlu-C20 diacid])KILLEQEKQKKQREQAETN[Api]QILAQV-NH2
SMILES: CC[C@H](C)[C@H](NC(C)=O)C(=O)N[C@H](C(=O)N[C@@H](CC(C)C)C(=O)N[C@@H](CO)C(=O)N[C@@H](CC(C)C)C(=O)N[C@@H](CC(=O)O)C(=O)N[C@@H](C(=O)N1CCC[C@H]1C(=O)N[C@H](C(=O)N[C@@H](CCCCN)C(=O)N[C@@H](CC(C)C)C(=O)N[C@@H](CCCCNC(=O)CC[C@H](NC(=O)CCCCCCCCCCCCCCCCCCC(=O)O)C(=O)O)C(=O)N[C@@H](CCCCN)C(=O)N[C@H](C(=O)N[C@@H](CC(C)C)C(=O)N[C@@H](CC(C)C)C(=O)N[C@@H](CCC(=O)O)C(=O)N[C@@H](CCC(N)=O)C(=O)N[C@@H](CCC(=O)O)C(=O)N[C@@H](CCCCN)C(=O)N[C@@H](CCC(N)=O)C(=O)N[C@@H](CCCCN)C(=O)N[C@@H](CCCCN)C(=O)N[C@@H](CCC(N)=O)C(=O)N[C@@H](CCCNC(=N)N)C(=O)N[C@@H](CCC(=O)O)C(=O)N[C@@H](CCC(N)=O)C(=O)N[C@@H](C)C(=O)N[C@@H](CCC(=O)O)C(=O)N[C@H](C(=O)N[C@@H](CC(N)=O)C(=O)NC1(C(=O)N[C@@H](CCC(N)=O)C(=O)N[C@H](C(=O)N[C@@H](CC(C)C)C(=O)N[C@@H](C)C(=O)N[C@@H](CCC(N)=O)C(=O)N[C@H](C(N)=O)C(C)C)[C@@H](C)CC)CCNCC1)[C@@H](C)O)[C@@H](C)CC)[C@@H](C)CC)C(C)C)C(C)C
Consider B3, for which, in assay [1], the midpoint of the response, the EC50, lay at 61.4 nM and the “Emax (% I)” value amounted to 65%. In assay [2], the EC50 [nM] (cAMP) was 0.12 nM.

B4: SEQ ID NO 208 (peptide)
peptide: Ac-IVLSLD[dV]PIKLK([γGlu-C20 diacid])KILLEQEKQK[Aib]QREQAETN[Api]QILAQV-NH2
SMILES: CC[C@H](C)[C@H](NC(C)=O)C(=O)N[C@H](C(=O)N[C@@H](CC(C)C)C(=O)N[C@@H](CO)C(=O)N[C@@H](CC(C)C)C(=O)N[C@@H](CC(=O)O)C(=O)N[C@@H](C(=O)N1CCC[C@H]1C(=O)N[C@H](C(=O)N[C@@H](CCCCN)C(=O)N[C@@H](CC(C)C)C(=O)N[C@@H](CCCCNC(=O)CC[C@H](NC(=O)CCCCCCCCCCCCCCCCCCC(=O)O)C(=O)O)C(=O)N[C@@H](CCCCN)C(=O)N[C@H](C(=O)N[C@@H](CC(C)C)C(=O)N[C@@H](CC(C)C)C(=O)N[C@@H](CCC(=O)O)C(=O)N[C@@H](CCC(N)=O)C(=O)N[C@@H](CCC(=O)O)C(=O)N[C@@H](CCCCN)C(=O)N[C@@H](CCC(N)=O)C(=O)N[C@@H](CCCCN)C(=O)NC(C)(C)C(=O)N[C@@H](CCC(N)=O)C(=O)N[C@@H](CCCNC(=N)N)C(=O)N[C@@H](CCC(=O)O)C(=O)N[C@@H](CCC(N)=O)C(=O)N[C@@H](C)C(=O)N[C@@H](CCC(=O)O)C(=O)N[C@H](C(=O)N[C@@H](CC(N)=O)C(=O)NC1(C(=O)N[C@@H](CCC(N)=O)C(=O)N[C@H](C(=O)N[C@@H](CC(C)C)C(=O)N[C@@H](C)C(=O)N[C@@H](CCC(N)=O)C(=O)N[C@H](C(N)=O)C(C)C)[C@@H](C)CC)CCNCC1)[C@@H](C)O)[C@@H](C)CC)[C@@H](C)CC)C(C)C)C(C)C
In the case of B4, in assay [1], the midpoint of the response, the EC50, lay at 83.9 nM and the “Emax (% I)” value was 63%. The EC50 [nM] (cAMP) in assay [2] stood at 0.15 nM.

A word on the EC50: it is the concentration that produces a half-maximal response. A lower EC50 goes with a more potent agent.

For the origin of these results see patent US20260001928A1 (CORTERIA PHARMACEUTICALS, priority 2022, published 2026).
